Data on one molecule can be found in patent US5500344A, “Serine protease and uses thereof” (The United States of America as represented by the …, priority 1992, dated 1996).

One data set concerns the target T1, Boc-Ala-Ala-Asp-SBzl.
T1 sequence (peptide, N-terminal Boc; C-terminal thiobenzyl ester (SBzl)): AAD

The target in the next data set is T2, Boc-Ala-Ala-Leu-SBzl.
T2 sequence (peptide, N-terminal Boc; C-terminal thiobenzyl ester (SBzl)): AAL

For another data set, the target named is T3, Boc-Ala-Ala-Met-SBzl.
T3 sequence (peptide, N-terminal Boc; C-terminal thiobenzyl ester (SBzl)): AAM

In a further data set the target is T4, Boc-Ala-Ala-Ser-SBzl.
T4 sequence (peptide, N-terminal Boc; C-terminal thiobenzyl ester (SBzl)): AAS

Another data set has as its target T5, Suc-Ala-Ala-Met-SBzl.
T5 sequence (peptide, N-terminal Suc; C-terminal thiobenzyl ester (SBzl)): AAM

A further data set addresses T6, Suc-Phe-Leu-Phe-SBzl.
T6 sequence (peptide, N-terminal Suc; C-terminal thiobenzyl ester (SBzl)): FLF

The nature of data set [1]: Met-ase activity of fractions on purification from RNK granules. The data set is classed as biochemical, rat. Here is the method:
The protease of the present invention is purified to homogeneity sufficient to be sequenced and is at least about 90% pure. At this purity level, the protease has a Met-ase activity of about 156 nM/sec/μg without the intentional addition of other substances such as other proteins or carriers. The assay for measuring this activity was performed as described in the Experimental Details section. The specific activity, however, depends on the degeneracy and folding of the protease and may be as low as about 100 nM/sec/μg to as high as about 200 nM/sec/μg.
Assay of Proteases. Thiobenzylester substrates were used to measure protease activities. For monitoring enzyme activities from granules and column fractions, assays were performed at room temperature using 0.5 mM 5,5'-dithiobis-(2-nitrobenzoic acid) (DTNB) (Sigma) to detect the HSBzl leaving group (e410 =13600M-^-1 cm^-1).
BLT-esterase activity was estimated using a microtiter assay (Green, G. D. J., and Shaw, E. Anal. Biochem. 93:223-226 (1979)). Briefly, 50 μl of sample was added to 100 μl of 1 mM DTNB, made up in 10 mM Hepes, 1 mM CaCl2, 1 mM MgCl2, pH7.2. The reaction was initiated by the addition of 50 μl of BLT (Sigma) to give a final concentration of 500 μM. For Metase determinations, 50 μl of dilutions of the sample in 0.1M Hepes, 0.05M CaCl2, pH7.5 were added to 100 μl of 1 mM DTNB and the reaction was initiated by the addition of 50 μl of Boc-Ala-Ala-Met-S Benzyl (Bzl) to give a final concentration of 150 μM. The duration of the assay depended on color development, the rate of which was measured (0.D410) on a Dynatech MR 5000 microplate reader. Controls of sample and DTNB alone or DTNB and substrate alone were run. For more sensitive comparisons of enzymatic activities, peptide thiobenzyl ester substrates were used to measure protease activities. The chymase substrate Suc-Phe-Leu-Phe-SBzl was purchased from BACHEM Bioscience Inc., Philadelphia, Pa. Z-Arg-SBzl (the tryptase substrate, Kam, C-M., et al. J. Biol. Chem. 262:3444-3451 (1987)); Boc-Ala-Ala-AA-SBzl (AA=Asp, Met, Leu, Nle, or Ser) and Suc-Ala-Ala-Met-SBzl (Odake, S., et al. Biochemistry 30:2217-2227 (1991); Harper, J. W., et al. Biochemistry 23:2995-3002 (1984)) were synthesized previously. Boc-Ala-Ala-Asp-SBzl is the substrate for Asp-ase and peptide thiobenzyl esters containing Met, Leu or Nle are substrates for Met-ase SP. Assays were performed at room temperature in 0.1M, Hepes buffer, pH7.5, containing 0.01M CaCl2 and 8% Me2 SO using 0.34 mM 4,4'-dithiodipyridine (Aldrithiol-4, Aldrich Chemical Co., Milwaukee, Wis.) to detect HSBzl leaving group that reacts with 4,4'-dithiodipyridine to release thiopyridone (ε324=19800M^-1 cm^-1, Grasetti, D. R. and Murray, J. F. Arch. Biochem. Biophys. 119:41-49 (1967)). The initial rates were measured at 324 nm using a Beckman 35 spectrophotometer when 10-25 μl of an enzyme stock solution was added to a cuvette containing 2.0 ml of buffer, 150 μl of 4,4'-dithiodipyridine and 25 μl of substrate. The same volume of substrate and 4,4'-dithiodipyridine were added to the reference cell in order to compensate for the background hydrolysis rate of the substrates. Initial rates were measured in duplicate for each substrate concentration and were averaged in each case. Substrate concentrations were 100-133 μM.

B1: RNK-Met-1 (enzyme)
chain: IIGGREAVPHSRPYMVSLQNTKSHMCGGVLVHQKWVLTAAHCLSEPLQQLKLVFGLHSLHDPQDPGLTFYIKQAIKHPGYNLKYENDLALLKLDGRVKPSKNVKPLALPRKPRDKPAEGSRCSTAGWGITHQRGQLAKSLQELDLRLLDTRMCNNSRFWNGVLTDSMLCLKAGAKGQAPCKGDSGGPLVCGKGKVDGILSFSSKNCTDIFKPTVATAVAPYSSWIRKVIGRWSPQPLT
Take B1: the Initial Rates came to 0 nM/s with Boc-Ala-Ala-Asp-SBzl; 2.9 nM/s with Boc-Ala-Ala-Leu-SBzl; 4.2 nM/s with Boc-Ala-Ala-Met-SBzl; 3.9 nM/s in the data set with Boc-Ala-Ala-Nle-SBzl; 0 nM/s with Boc-Ala-Ala-Ser-SBzl; 10.1 nM/s with Suc-Ala-Ala-Met-SBzl. Besides, in the data set with Suc-Phe-Leu-Phe-SBzl, the Initial Rates was 0 nM/s. Besides, the “Increase in the specific activity on purification to homogeneity from the granule extract” value in data set [1] is reported as 29 fold. The molecule also returned a Rate in data set [1] (Met-ase rate, protein in assay 10, 3.4, 1.3, 0.1 μg by fraction) of 17 nM/s. In data set [1] (Met-ase, purification step), the “Specific Activity” value turned out to be 156.0 nM/sec/μg protein. Further, the Met-ase activity result in data set [1] (protease at least about 90% pure, no added proteins or carriers) is reported as “about 156 nM/sec/μg”. Further, the Total in data set [1] (total Met-ase activity of the fraction) was 2,807 nM/sec.
